Assay results reported in US20250152759A1, “SINGLE-DOMAIN ANTIBODIES AND VARIANTS THEREOF AGAINST MET” (Wisconsin Alumni Research Foundation, priority 2023, published 2025).
“Also recorded” adds a separate entry of the source. Like-named read-outs stand apart in the source and are kept apart here.

Key:
[1] = system: MET, AKT and ERK phosphorylation; assay: Immunoblot of MET downstream signaling, Detroit 562 and T-47D; type: cell-based, human; settings: 5 nM, positive control
Method: To determine if 1E7-Fc by itself was therapeutic and inhibited MET signaling, both cell proliferation assays and western blotting examining MET downstream signaling were evaluated in Detroit […] cell and T-47D as a negative control. The MET tyrosine kinase inhibitor capmatinib was used as a positive control for MET downstream signaling.
Cells were seeded in 10-cm dishes and treated with either control (i.e., PBS), 10 nM, or 100 nM 1E7-Fc when cells reached about 75% confluency, and then cells were harvested 4, 24, or 48 h after treatment. Capmatinib (5 nM) was used as a positive control for inhibition of MET signaling. Cell lysates were prepared as previously described (Könning et al. 2017). Equal amounts of protein were analyzed by sodium dodecyl-sulfate polyacrylamide gel electrophoresis (SDS-PAGE), transferred to polyvinylidene fluoride membranes, and probed with specific primary antibodies. Targets were detected with horseradish peroxidase (HRP)-conjugated secondary antibodies (BioRad) using Enhanced Chemiluminescence western blot substrates (Pierce) and imaged on a LI-COR Odyssey Fc. The specific antibodies are as listed: MET, phospho-MET (Tyr1234/1235), AKT, phosphor-AKT (Ser473), p44/42 MAPK (Erk1/2), phosphor-p44/42 MAPK (Erk1/2) *Thr202/Try204), GAPDH.

[2] = system: MET, AKT and ERK phosphorylation; assay: Western blot of MET signaling, NSCLC and HeLa cell lines; type: cell-based, human; settings: 5 nM, 4 h, positive control
Method: To determine if 1E7-Fc by itself was a therapeutic and inhibited MET signaling, as has been seen with other MET antibodies such as onartuzumab and emibetuzumab (De Mello et al. 2020), we performed a cell proliferation assay and Western blot to query effects of 1E7-Fc on cell behavior and downstream signaling pathways. Cell viability was measured using a panel of the same four cell lines. […] In contrast, treatment with the FDA-approved MET TKI, capmatinib, blocked MET, AKT, and ERK phosphorylation, as anticipated (FIG. 4B).
Cells were seeded in 10 cm dishes and treated with either control (PBS), 10 nM, or 100 nM 1E7-Fc when cells were reached about 75% confluency, and then cells were harvested 4 h after treatment. Five nM Capmatinib was used as a positive control. Cell lysates were generated as previously described (SenthilKumar et al. 2020).

human MET [3] = target: T1, human MET (Homo sapiens, UniProt P08581); assay: Dilution ELISA on human MET; type: binding; set-up: Single-domain constructs specific to MET extracellular domain were identified from a naïve VHH antibody phage display library; biotin (biotinylated); settings: for specificity for human versus rhesus macaque and murine MET: ELISA, FIG. 3A
T1 sequence (P08581 25-932 limits assumed): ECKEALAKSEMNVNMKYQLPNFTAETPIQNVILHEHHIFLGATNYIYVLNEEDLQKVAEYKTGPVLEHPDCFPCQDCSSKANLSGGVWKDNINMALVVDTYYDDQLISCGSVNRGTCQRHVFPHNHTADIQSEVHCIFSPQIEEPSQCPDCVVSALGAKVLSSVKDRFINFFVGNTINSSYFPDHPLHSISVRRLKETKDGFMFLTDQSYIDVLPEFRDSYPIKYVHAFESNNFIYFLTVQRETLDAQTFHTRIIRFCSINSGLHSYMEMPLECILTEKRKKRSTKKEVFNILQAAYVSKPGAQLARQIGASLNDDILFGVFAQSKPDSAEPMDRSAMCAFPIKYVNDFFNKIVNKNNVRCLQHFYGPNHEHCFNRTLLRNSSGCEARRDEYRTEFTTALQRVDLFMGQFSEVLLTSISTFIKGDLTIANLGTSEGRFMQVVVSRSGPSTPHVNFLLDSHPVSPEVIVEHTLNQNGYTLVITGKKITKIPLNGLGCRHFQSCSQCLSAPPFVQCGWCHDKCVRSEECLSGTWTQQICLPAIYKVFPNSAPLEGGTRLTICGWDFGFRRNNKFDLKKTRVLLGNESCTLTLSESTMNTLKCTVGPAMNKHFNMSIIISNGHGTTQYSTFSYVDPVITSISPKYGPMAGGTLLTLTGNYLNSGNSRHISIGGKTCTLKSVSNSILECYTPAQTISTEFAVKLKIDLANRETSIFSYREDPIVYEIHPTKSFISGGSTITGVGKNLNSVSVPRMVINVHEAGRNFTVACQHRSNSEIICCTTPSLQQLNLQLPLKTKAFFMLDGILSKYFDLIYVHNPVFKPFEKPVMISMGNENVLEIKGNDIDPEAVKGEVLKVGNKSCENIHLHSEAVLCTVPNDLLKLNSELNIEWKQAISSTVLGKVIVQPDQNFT
Description: (§1) Next, we evaluated the ability of the three unique VHH clones (1E7, 1A2, and 2G9) to bind murine and rhesus monkey MET by performing ELISA counter screens. […] The three clones were expressed and purified for additional testing to identify a lead VHH. Biolayer interferometry (BLI) was next used to determine the affinity of each VHH domain for MET (FIGS. 3B-D, Table 7). […] The BLI and dilution ELISA data combined determined that 1E7 was the lead clone to for development into a VHH-Fc targeting MET.
(§2) Dilution ELISA: MaxiSorp plates were prepared as described above. 50 μL of biotinylated human cMET, murine cMET, or rhesus macaque cMET was added to the wells. 1E7 monomeric VHH was serial diluted from 1 μM to 15.6 nM in PBS, 1% BSA < and 0.005% Tween20 and added to each well. Wells with protein but no 1E7 VHH were used as a negative control. 1E7 binding was detected, as described above.

human MET [4] = target: T1, human MET; assay: Biolayer interferometry (BLI) of VHH domains on human MET; type: binding; settings: for Ka / Kd: BLI curve fit; for Ka: association rate; for binding affinity to human MET (in words): comparison of the three VHH clones
murine MET = target: T2, murine MET (Mus musculus, UniProt P16056); assay: Dilution ELISA counter screen on murine MET; type: binding
T2 construct: biotin (biotinylated)
T2 sequence (P16056 25-1379): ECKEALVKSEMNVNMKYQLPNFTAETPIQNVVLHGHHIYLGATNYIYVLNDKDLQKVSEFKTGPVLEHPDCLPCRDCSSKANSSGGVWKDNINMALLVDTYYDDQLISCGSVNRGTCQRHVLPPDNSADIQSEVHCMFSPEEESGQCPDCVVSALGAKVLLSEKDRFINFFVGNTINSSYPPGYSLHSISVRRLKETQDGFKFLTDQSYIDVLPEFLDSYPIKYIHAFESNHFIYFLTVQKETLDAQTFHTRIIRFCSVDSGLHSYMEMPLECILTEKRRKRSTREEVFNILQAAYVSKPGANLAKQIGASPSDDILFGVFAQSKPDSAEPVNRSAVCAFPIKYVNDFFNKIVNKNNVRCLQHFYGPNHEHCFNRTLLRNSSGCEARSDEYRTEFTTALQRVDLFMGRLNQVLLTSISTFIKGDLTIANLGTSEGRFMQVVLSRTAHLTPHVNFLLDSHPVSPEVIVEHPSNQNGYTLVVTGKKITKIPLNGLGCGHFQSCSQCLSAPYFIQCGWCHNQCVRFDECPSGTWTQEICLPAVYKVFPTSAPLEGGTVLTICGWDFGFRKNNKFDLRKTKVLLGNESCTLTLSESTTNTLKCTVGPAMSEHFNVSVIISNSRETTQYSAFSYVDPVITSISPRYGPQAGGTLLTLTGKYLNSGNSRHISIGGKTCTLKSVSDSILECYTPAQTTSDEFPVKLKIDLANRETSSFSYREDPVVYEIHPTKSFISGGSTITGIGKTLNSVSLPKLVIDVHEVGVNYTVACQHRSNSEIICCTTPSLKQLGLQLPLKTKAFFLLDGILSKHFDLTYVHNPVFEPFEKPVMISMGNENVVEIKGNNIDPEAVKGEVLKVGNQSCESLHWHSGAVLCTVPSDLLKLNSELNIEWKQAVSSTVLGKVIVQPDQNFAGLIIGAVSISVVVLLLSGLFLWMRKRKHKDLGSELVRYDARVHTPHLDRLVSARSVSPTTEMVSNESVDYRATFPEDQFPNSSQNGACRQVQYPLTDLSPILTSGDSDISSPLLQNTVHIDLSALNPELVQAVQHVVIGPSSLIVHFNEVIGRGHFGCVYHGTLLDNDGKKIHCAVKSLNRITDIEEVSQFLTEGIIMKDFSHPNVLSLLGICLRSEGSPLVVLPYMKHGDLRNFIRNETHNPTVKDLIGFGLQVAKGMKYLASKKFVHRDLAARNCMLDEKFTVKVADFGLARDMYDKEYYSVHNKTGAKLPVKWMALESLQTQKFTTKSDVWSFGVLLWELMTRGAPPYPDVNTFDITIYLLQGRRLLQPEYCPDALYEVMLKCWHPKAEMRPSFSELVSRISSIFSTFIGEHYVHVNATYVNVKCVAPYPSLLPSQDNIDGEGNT
Description: as §1, §2

rhesus macaque MET = target: T3, rhesus macaque MET (Macaca mulatta, UniProt F7H1K4); assay: Dilution ELISA counter screen on rhesus macaque MET; type: binding
T3 construct: biotin (biotinylated)
T3 sequence (F7H1K4 25-1381): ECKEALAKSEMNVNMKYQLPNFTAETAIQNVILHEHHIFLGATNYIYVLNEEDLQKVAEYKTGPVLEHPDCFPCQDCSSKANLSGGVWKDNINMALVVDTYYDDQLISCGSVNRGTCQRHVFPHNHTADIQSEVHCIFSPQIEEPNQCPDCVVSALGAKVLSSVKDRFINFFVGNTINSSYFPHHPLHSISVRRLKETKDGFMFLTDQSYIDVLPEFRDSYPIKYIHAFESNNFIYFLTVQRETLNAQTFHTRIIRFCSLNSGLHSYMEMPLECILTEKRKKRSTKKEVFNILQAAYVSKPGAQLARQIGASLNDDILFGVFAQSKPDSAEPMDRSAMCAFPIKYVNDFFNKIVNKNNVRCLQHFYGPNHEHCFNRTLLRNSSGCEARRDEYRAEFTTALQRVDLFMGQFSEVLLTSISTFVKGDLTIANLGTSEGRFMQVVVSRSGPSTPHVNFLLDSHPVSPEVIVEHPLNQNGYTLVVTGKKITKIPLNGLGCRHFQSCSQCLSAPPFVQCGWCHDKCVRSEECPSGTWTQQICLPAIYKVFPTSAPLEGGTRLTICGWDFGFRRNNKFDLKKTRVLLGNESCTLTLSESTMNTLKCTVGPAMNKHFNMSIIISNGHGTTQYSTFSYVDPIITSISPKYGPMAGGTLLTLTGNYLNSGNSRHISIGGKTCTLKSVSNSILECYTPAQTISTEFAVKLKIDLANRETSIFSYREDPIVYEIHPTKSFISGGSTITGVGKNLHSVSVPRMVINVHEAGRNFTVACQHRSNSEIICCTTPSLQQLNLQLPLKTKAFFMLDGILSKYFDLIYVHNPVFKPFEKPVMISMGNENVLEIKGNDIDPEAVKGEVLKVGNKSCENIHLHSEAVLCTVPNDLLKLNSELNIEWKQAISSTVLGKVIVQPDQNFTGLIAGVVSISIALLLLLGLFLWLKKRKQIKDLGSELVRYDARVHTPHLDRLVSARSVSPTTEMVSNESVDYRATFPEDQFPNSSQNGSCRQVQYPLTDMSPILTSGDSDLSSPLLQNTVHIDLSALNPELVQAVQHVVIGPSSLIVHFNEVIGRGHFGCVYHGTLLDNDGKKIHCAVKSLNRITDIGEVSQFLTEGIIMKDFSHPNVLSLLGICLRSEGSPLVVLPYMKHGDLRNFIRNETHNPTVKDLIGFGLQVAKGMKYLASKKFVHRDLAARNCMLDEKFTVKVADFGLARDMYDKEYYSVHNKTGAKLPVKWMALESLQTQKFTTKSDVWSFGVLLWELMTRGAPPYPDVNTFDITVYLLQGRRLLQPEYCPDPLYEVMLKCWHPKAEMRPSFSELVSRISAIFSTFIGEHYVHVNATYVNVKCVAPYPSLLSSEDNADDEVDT
Description: as §1, §2

[5] = dissociation rate, unit not given

Molecule | effect on phosphorylation of MET [1] | effect on MET, AKT and ERK phosphorylation [2] | ELISA signal on human MET (human MET [3]; dilution ELISA, unpurified VHH serially diluted) | kon and koff compared to the other clones (human MET [4]; BLI) | Ka (human MET [4]; unit not given) | Kd (human MET [4]; [5]) | Kd (human MET [4]; nM, read-out: KD) [nM] | binding affinity to human MET (in words) (human MET [4]) | binding to murine MET (murine MET) | binding to rhesus macaque MET (rhesus macaque MET) | specificity for human versus rhesus macaque and murine MET (human MET [3])
CNC(=O)c1ccc(-c2cnc3ncc(Cc4ccc5ncccc5c4)n3n2)cc1F [capmatinib, reference compound] | effectively blocked | blocked | – | – | – | – | – | – | – | – | –
1E7: anti-MET camelid VHH single-domain antibody from phage display, amino acid sequence SEQ ID NO:22 (protein) VHH: EVQLVESGGGLVQPGGSLRLSCEASGFNFERYDMSWVRQAPGKGPEWVSRLNSFGRSTYYLDSVKGRFTVSRDNAQNMLYLQMNNLKPEDTAVYYCARSTDVSPGLSSWWTYEYDVWGQGTQVTVSS | – | – | strongest MET signal; also recorded: saturating ELISA signals | highest kon and the lowest koff | 1.445 × 10^5 | 4.045 × 10^−2 | 27 | high affinity; also recorded: highest binding affinity | modest cross-reactivity; also recorded: minimal binding | modest cross-reactivity; also recorded: minimal binding | –
1A2: anti-MET camelid VHH single-domain antibody from phage display, amino acid sequence SEQ ID NO:24 (protein) VHH: EAQLVESGGGLVQPGGSLRLSCEASGFNFERYDMSWVRQAPGKGPEWVSRLNSFGRSTYYLDSVKGRFTVSRDTAKSTFYLQMNNLKPEDAGVYYCARSTDVSPGLSSWWTYEYDVWGQGTQVTVSS | – | – | – | – | 1.865 × 10^5 | 2.869 × 10^−2 | 43 | high affinity; also recorded: weaker binding affinities | modest cross-reactivity | modest cross-reactivity | did not show clear specificity
2G9: anti-MET camelid VHH single-domain antibody from phage display, amino acid sequence SEQ ID NO:26 (protein) VHH: EVQLVESGGALVQPGGSLRLSCAASGFTFGAYDMVWVRHATGKGPEWISFISNGGEEVSYASSVKDRFTISRDNAQNMLYLQMNNLKPEDTAVYYCARSTDVSPGLSSWWTYEYDVWGQGTLVTVSS | – | – | – | – | 1.000 × 10^4 | 1.500 × 10^−3 | 159 | high affinity; also recorded: weaker binding affinities | modest cross-reactivity | modest cross-reactivity | did not show clear specificity
